Data from publication PMC3240604.

Target: purified wild-type N1 (C-terminal His tag) (vaccinia virus) (UniProt P17361)
Assay: SEC-MALS

“purified wild-type N1 (C-terminal His tag) (from UniProt P17361) (natural protein)” showed a stoichiometry N of 2.
